Patent US20250025549A1 (NOVAVAX, published 2025)

Target: T1, human angiotensin-converting enzyme 2 precursor (hACE2), His-tagged (human, UniProt Q9BYF1 18-740)
T1 construct: also called His-tagged human ACE2; histidine-tagged hACE2
Experiment: bio-layer interferometry

T1 sequence (Q9BYF1 18-740 limits assumed): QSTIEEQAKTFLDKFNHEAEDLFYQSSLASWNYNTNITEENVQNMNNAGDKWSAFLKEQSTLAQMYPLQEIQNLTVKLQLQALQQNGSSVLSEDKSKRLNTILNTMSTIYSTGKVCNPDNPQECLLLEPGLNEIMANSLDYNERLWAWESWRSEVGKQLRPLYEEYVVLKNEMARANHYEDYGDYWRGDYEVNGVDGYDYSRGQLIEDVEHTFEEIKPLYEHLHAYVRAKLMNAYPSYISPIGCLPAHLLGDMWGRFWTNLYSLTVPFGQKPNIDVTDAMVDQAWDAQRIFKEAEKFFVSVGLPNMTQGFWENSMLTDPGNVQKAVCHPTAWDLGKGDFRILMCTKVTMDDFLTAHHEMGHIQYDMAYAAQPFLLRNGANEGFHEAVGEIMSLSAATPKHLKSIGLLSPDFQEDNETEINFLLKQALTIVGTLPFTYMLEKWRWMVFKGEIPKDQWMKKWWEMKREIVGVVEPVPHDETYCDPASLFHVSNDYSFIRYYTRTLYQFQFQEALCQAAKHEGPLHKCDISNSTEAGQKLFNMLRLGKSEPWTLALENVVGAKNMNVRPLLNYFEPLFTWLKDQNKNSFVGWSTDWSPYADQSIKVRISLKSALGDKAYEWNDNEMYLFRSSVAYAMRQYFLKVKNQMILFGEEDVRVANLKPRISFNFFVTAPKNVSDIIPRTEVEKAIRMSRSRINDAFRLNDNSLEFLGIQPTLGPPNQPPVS

B1: MERS S protein (other)
chain: YVDVGPDSVKSACIEVDIQQTFFDKTWPRPIDVSKADGIIYPQGRTYSNITITYQGLFPYQGDHGDMYVYSAGHATGTTPQKLFVANYSQDVKQFANGFVVRIGAAANSTGTVIISPSTSATIRKIYPAFMLGSSVGNFSDGKMGRFFNHTLVLLPDGCGTLLRAFYCILEPRSGNHCPAGNSYTSFATYHTPATDCSDGNYNRNASLNSFKEYFNLRNCTFMYTYNITEDEILEWFGITQTAQGVHLFSSRYVDLYGGNMFQFATLPVYDTIKYYSIIPHSIRSIQSDRKAWAAFYVYKLQPLTFLLDFSVDGYIRRAIDCGFNDLSQLHCSYESFDVESGVYSVSSFEAKPSGSVVEQAEGVECDFSPLLSGTPPQVYNFKRLVFTNCNYNLTKLLSLFSVNDFTCSQISPAAIASNCYSSLILDYFSYPLSMKSDLSVSSAGPISQFNYKQSFSNPTCLILATVPHNLTTITKPLKYSYINKCSRFLSDDRTEVPQLVNANQYSPCVSIVPSTVWEDGDYYRKQLSPLEGGGWLVASGSTVAMTEQLQMGFGITVQYGTDTNSVCPKLEFANDTKIASQLGNCVEYSLYGVSGRGVFQNCTAVGVRQQRFVYDAYQNLVGYYSDDGNYYCLRACVSVPVSVIYDKETKTHATLFGSVACEHISSTMSQYSRSTRSMLKRRDSTYGPLQTPVGCVLGLVNSSLFVEDCKLPLGQSLCALPDTPSTLTPRSVRSVPGEMRLASIAFNHPIQVDQLNSSYFKLSIPTNFSFGVTQEYIQTTIQKVTVDCKQYVCNGFQKCEQLLREYGQFCSKINQALHGANLRQDDSVRNLFASVKSSQSSPIIPGFGGDFNLTLLEPVSISTGSRSARSAIEDLLFDKVTIADPGYMQGYDDCMQQGPASARDLICAQYVAGYKVLPPLMDVNMEAAYTSSLLGSIAGVGWTAGLSSFAAIPFAQSIFYRLNGVGITQQVLSENQKLIANKFNQALGAMQTGFTTTNEAFHKVQDAVNNNAQALSKLASELSNTFGAISASIGDIIQRLDVLEQDAQIDRLINGRLTTLNAFVAQQLVRSESAALSAQLAKDKVNECVKAQSKRSGFCGQGTHIVSFVVNAPNGLYFMHVGYYPSNHIEVVSAYGLCDAANPTNCIAPVNGYFIKTNNTRIVDEWSYTGSSFYAPEPITSLNTKYVAPQVTYQNISTNLPPPLLGNSTGIDFQDELDEFFKNVSTSIPNFGSLTQINTTLLDLTYEMLSLQQVVKALNESYIDLKELGNYTYYNKWPWYIWLGFIAGLVALALCVFFILCCTGCGTNCMGKLKCNRCCDRYEEYDLEPHKVHVH
notes: also called MERS-CoV spike protein
Q: Does B1 bind?
A: no binding
